Experimental data published in patent US20240116985A1 (published 2024).
One block for each binder: values may come before it. Starred links: 1 amine or outer side, 2 acyl side, 3 side chain; linkers in the order of their positions; H or OH if unused. Positions of bridges follow the written chain, without caps; N, C: chain ends. Non-standard residues stand in square brackets, D forms with d. Primed or numbered codes have the meaning given here. PyrS2″ = (S)-3-amino-1-((pent-4-en-1-yloxy)carbonyl)pyrrolidine-3-carboxylic acid (stapling residue), C=CCCCOC(=O)N1CC[C@@](N[*:1])(C(=O)[*:2])C1; B5(4) = 2,2-bis(4-pentenyl)glycine = 2-amino-2-(pent-4-en-1-yl)hept-6-enoic acid (stitching residue), C=CCCCC(CCCC=C)(N[*:1])C(=O)[*:2]; B5(5) = 2,2-bis(4-pentenyl)glycine, 2-amino-2-(pent-4-en-1-yl)hept-6-enoic acid (stitching residue), C=CCCCC(CCCC=C)(N[*:1])C(=O)[*:2]; TfeGA = (S)-2-amino-3-((carboxymethyl)(2,2,2-trifluoroethyl)amino)propanoic acid, O=C([C@H](CN(CC(=O)[*:3])CC(F)(F)F)N[*:1])[*:2]; (EtSSpy)AspE = (S)-2-amino-4-oxo-4-(2-(pyridin-2-yldisulfaneyl)ethoxy)butanoic acid, O=C(C[C@H](N[*:1])C(=O)[*:2])OCCSSc1ccccn1; PyrS2 = (S)-3-amino-1-((pent-4-en-1-yloxy)carbonyl)pyrrolidine-3-carboxylic acid, C=CCCCOC(=O)N1CC[C@@](N[*:1])(C(=O)[*:2])C1; (Ac)GA = (S)-2-amino-3-(N-(carboxymethyl)acetamido)propanoic acid, CC(=O)N(CC(=O)[*:3])C[C@H](N[*:1])C(=O)[*:2]; GA = (S)-2-amino-3-((carboxymethyl)amino)propanoic acid, O=C([C@H](CNCC(=O)[*:3])N[*:1])[*:2]; AspSH = (S)-2-amino-4-mercapto-4-oxobutanoic acid, O=C(C[C@H](N[*:1])C(=O)[*:2])S[*:3]; B5 = 2-amino-2-(pent-4-en-1-yl)hept-6-enoic acid, C=CCCCC(CCCC=C)(N[*:1])C(=O)[*:2]; 2NH2F″ = O=C([C@H](Cc1ccccc1N[*:3])N[*:1])[*:2]; Phe(2-Cl) = N[C@@H](Cc1ccccc1Cl)C(=O)O; Phe(2-Me) = Cc1ccccc1C[C@H](N)C(=O)O; Bta = N[C@@H](Cc1csc2ccccc12)C(=O)O; Lys(iPr) = CC(C)NCCCC[C@H](N)C(=O)O; αAllylPro = C=CC[C@@]1(C(=O)O)CCCN1; tBuAla = CC(C)(C)C[C@H](N)C(=O)O; 3Thi = N[C@@H](Cc1ccsc1)C(=O)O; PyrS2(4) = not defined here

Assays:
[1] = biological target: T1, B-cat-Halo (beta-catenin HaloTag fusion expressed in HEK293 cells) (UniProt P35222 1-781); assay: cell-based or functional assay
T1 sequence (looked up): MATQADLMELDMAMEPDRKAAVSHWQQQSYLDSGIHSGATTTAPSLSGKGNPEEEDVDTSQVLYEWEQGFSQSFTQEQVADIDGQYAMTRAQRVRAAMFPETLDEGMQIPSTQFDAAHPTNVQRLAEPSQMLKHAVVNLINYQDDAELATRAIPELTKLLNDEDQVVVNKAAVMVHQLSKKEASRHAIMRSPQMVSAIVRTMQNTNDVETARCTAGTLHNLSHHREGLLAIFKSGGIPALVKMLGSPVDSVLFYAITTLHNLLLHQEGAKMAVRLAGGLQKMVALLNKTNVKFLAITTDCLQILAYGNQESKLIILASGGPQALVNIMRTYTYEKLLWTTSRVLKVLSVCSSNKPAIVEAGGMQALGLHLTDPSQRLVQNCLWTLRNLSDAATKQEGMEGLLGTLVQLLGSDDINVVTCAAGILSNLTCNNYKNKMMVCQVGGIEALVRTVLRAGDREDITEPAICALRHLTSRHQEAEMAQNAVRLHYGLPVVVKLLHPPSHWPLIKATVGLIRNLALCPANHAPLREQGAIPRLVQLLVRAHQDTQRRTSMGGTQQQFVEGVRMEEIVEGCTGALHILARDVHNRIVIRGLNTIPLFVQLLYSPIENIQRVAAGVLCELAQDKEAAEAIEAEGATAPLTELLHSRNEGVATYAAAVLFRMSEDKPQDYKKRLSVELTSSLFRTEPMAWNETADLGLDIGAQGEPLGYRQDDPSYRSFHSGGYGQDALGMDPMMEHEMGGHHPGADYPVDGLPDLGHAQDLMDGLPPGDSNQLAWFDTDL

B-cat-Halo = biological target: T2, B-cat-Halo (UniProt P35222 1-781); assay: cell-based or functional assay
T2 sequence (looked up): T1 sequence (looked up)

- NanoBRET Abs IC50 [1]: > 20 µM
B1: I-1732 (peptide)
peptide: Ac-[αAllylPro]D[tBuAla][B5(4)]D[GA]AAFN[PyrS2(4)][3Thi][Bta]Q-NH2
modifications: staple 1-4, 4-11; not fully specified; reading uncertain

- NanoBRET Abs IC50 (B-cat-Halo): 20.2 µM
B2: I-1748 (peptide)
peptide: Ac-[αAllylPro]D[tBuAla][B5(5)]D[TfeGA]AAFL[PyrS2″][3Thi][Bta]L-NH2
modifications: staple 1-4, 4-11

- NanoBRET Abs IC50 (B-cat-Halo): > 20 µM
B3: I-1761 (peptide)
peptide: Ac-[αAllylPro]D[tBuAla][B5(5)]D[TfeGA][Lys(iPr)]AFL[PyrS2″][3Thi][Bta]F-NH2
modifications: staple 1-4, 4-11

- NanoBRET Abs IC50 [1]: 23 µM
B4: I-1729 (peptide)
peptide: Ac-[αAllylPro]D[tBuAla][B5]D[(Ac)GA]AAFL[PyrS2][3Thi][Bta]Q-NH2
modifications: staple 1-4, 4-11

- NanoBRET Abs IC50 [1]: 29.7 µM
B5: I-1724 (peptide)
peptide: Ac-[αAllylPro][(EtSSpy)AspE][tBuAla][B5]DDAAFN[PyrS2][Phe(2-Cl)][Bta]Q-NH2
modifications: staple 1-4, 4-11; not fully specified

- NanoBRET Abs IC50 [1]: > 20 µM
B6: I-1722 (peptide)
peptide: Ac-[αAllylPro][AspSH][tBuAla][B5]DDAAFN[PyrS2][Phe(2-Cl)][Bta]Q-NH2
modifications: staple 1-4, 4-11; not fully specified

- NanoBRET Abs IC50 (B-cat-Halo): > 20 µM
B7: I-1759 (peptide)
peptide: Ac-[αAllylPro]D[tBuAla][B5(5)]D[TfeGA][Lys(iPr)]AFL[PyrS2″][3Thi][Bta]L-NH2
modifications: staple 1-4, 4-11

- NanoBRET Abs IC50 [1]: > 20 µM
B8: I-1726 (peptide)
peptide: Ac-[αAllylPro]D[tBuAla][B5]D[TfeGA]AAFL[PyrS2][Phe(2-Me)][Bta]Q-NH2
modifications: staple 1-4, 4-11; also: -CH=CH- in each staple reduced to -CH2-CH2-

- NanoBRET Abs IC50 [1]: > 20 µM
B9: I-1747 (peptide)
peptide: Ac-[αAllylPro]D[tBuAla][B5(5)]D[TfeGA]AAFL[PyrS2″][3Thi][Bta]L-NH2
modifications: staple 1-4, 4-11

- NanoBRET Abs IC50 (B-cat-Halo): > 20 µM
B10: I-1760 (peptide)
peptide: Ac-[αAllylPro]D[tBuAla][B5(5)]D[TfeGA][Lys(iPr)]AFT[PyrS2″][3Thi][Bta]L-NH2
modifications: staple 1-4, 4-11

- NanoBRET Abs IC50 [1]: 29.5 µM
B11: I-1731 (peptide)
peptide: Ac-[αAllylPro]D[tBuAla][B5]D[GA]AAFL[PyrS2][3Thi][Bta]Q-NH2
modifications: staple 1-4, 4-11

- NanoBRET Abs IC50 (B-cat-Halo): 23.7 µM
B12: I-1750 (peptide)
peptide: Ac-[αAllylPro]D[tBuAla][B5(5)]D[TfeGA]AAFL[PyrS2″][3Thi][Bta]F-NH2
modifications: staple 1-4, 4-11

- NanoBRET Abs IC50 [1]: 34.1 µM
B13: I-1727 (peptide)
peptide: Ac-[αAllylPro]D[tBuAla][B5(4)]DDAA[2NH2F″]N[PyrS2(4)][Phe(2-Cl)][Bta]Q-NH2
modifications: staple 1-4, 4-11; not fully specified; reading uncertain

- NanoBRET Abs IC50 [1]: > 20 µM
B14: I-1733 (peptide)
peptide: Ac-[αAllylPro]D[tBuAla][B5]D[GA]AAFN[PyrS2][3Thi][Bta]Q-NH2
modifications: staple 1-4, 4-11

- NanoBRET Abs IC50 [1]: 10 µM
B15: I-1725 (peptide)
peptide: Ac-[αAllylPro]D[tBuAla][B5]D[TfeGA]AAFL[PyrS2][Phe(2-Me)][Bta]Q-NH2
modifications: staple 1-4, 4-11
